Test results published in paper PMC8508734 (International Journal of Molecular Sciences, 2021).

Assays:
[1] = molecular target: T1, histamine H3 receptor (H3R) (Rattus norvegicus, UniProt Q9QYN8); assay: BRET between H3R-RLuc and H3R-YFP in HEK […] cells; also […]GTPγS binding (inverse agonist); type: cell-based
T1 construct: gene Hrh3; long isoform H3(445)R, C-terminal RLuc / YFP fusions

[2] = molecular target: T2, H3R-RLuc (rat histamine H3 receptor, long isoform H3(445)R, fused to Renilla Luciferase) (rat, UniProt Q9QYN8 1-445); assay: FRET or BRET; BRET donor saturation curves in intact living HEK 293 cells, constant RLuc fusion and increasing YFP fusion, 48 h after transfection, HBSS, 25 °C, coelenterazine H 5 µM; without or with imetit or thioperamide (100 nM); details: partners not purified
T2 construct: histamine H3 receptor, rat, long isoform H3(445)R (445 residues), cDNA amplified without its stop codon and cloned into pRL-CMV-RLuc; The same construct was expressed in HEK 293 cells and in rat cortical neurons; the assay tells which; also called H3R-Luc; source: rat cortical neurons in primary culture, transfected (lipofectamine 2000); not shown: Renilla Luciferase (RLuc), C-terminal, kept

Row | BRET50 (basal) [2] [acceptor/donor ratio] | BRET50 (with imetit 100 nM) [2] [acceptor/donor ratio] | BRET50 (with thioperamide 100 nM) [2] [acceptor/donor ratio] | Molecule | EC50 [1] [nM]
1 |  |  |  | S=C(NC1CCCCC1)N1CCC(c2cnc[nH]2)CC1 [thioperamide] | 2 ± 1
2 | 1.24 | 1.19 | 1.56 | H3R-YFP (rat histamine H3 receptor, long isoform H3(445)R, fused to Yellow Fluorescent Protein) (receptor, UniProt Q9QYN8 1-445, looked up, histamine H3 receptor, rat, long isoform H3(445)R (445 residues), cDNA amplified without its stop codon and cloned into pEYFP-N1; The same construct was expressed in HEK 293 cells and in rat cortical neurons; the assay tells which; also called C-terminal YFP-fused H3R; source: rat cortical neurons in primary culture, transfected (lipofectamine 2000); not shown: YFP, C-terminal, kept) MERAPPDGLMNASGTLAGEAAAAGGARGFSAAWTAVLAALMALLIVATVLGNALVMLAFVADSSLRTQNNFFLLNLAISDFLVGAFCIPLYVPYVLTGRWTFGRGLCKLWLVVDYLLCASSVFNIVLISYDRFLSVTRAVSYRAQQGDTRRAVRKMALVWVLAFLLYGPAILSWEYLSGGSSIPEGHCYAEFFYNWYFLITASTLEFFTPFLSVTFFNLSIYLNIQRRTRLRLDGGREAGPEPPPDAQPSPPPAPPSCWGCWPKGHGEAMPLHRYGVGEAGPGVEAGEAALGGGSGGGAAASPTSSSGSSSRGTERPRSLKRGSKPSASSASLEKRMKMVSQSITQRFRLSRDKKVAKSLAIIVSIFGLCWAPYTLLMIIRAACHGRCIPDYWYETSFWLLWANSAVNPVLYPLCHYSFRRAFTKLLCPQKLKVQPHGSLEQCWK | 
